What is called EC50 is the concentration at which the effect is half-maximal. A high value points to a need for much substance. Usually IC50 stands for the concentration at which inhibition is half-maximal.

Where a chain is given by its changes, count along the chain named.

Experiment [1] has as its target T1, EGFR expressed on A431 cells (human, UniProt P00533 25-1210). In words: cell-based or functional assay.
Experiment [2] concerns the target T1, EGFR expressed on A431 cells. In words: EGFR cell receptor binding assay: inhibition of biotinylated EGF binding to A431 cells; IgG-like format.
For a further experiment, the target named is T2, VEGF-165 (human, UniProt P15692-4 27-191).
T2 construct: The assay text gives no species; also called vascular endothelial growth factor
Description: VEGF receptor binding assay (RBA), IgG-like format; receptor (VEGFR1 or VEGFR2) not given.

Experiment [3] deals with T1, EGFR expressed on A431 cells. In words: EGFR binding assay: inhibition of biotinylated EGF binding to A431 cells; lowest value obtained.
Description: All reagents were prepared in PBS/1% BSA. The plate was incubated for 30 minutes at room temperature.

T2 sequence (P15692 other isoform, or with tags, fused parts or gaps limits assumed): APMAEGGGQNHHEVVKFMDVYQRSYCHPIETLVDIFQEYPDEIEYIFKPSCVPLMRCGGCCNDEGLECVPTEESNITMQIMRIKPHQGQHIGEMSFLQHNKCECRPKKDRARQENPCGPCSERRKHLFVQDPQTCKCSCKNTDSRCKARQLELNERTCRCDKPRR

B1: DOM16-39 (other)
VL: DIQMTQSPSSLSASVGDRVTITCRASQWIGILLDWYQQKPGEAPKLLIYYASFLQSGVPSRFSGSGSGTDFTLTISSLQPEDFATYYCQQANPAPLTFGQGTKVEIKR
For B1, the “Kinase Assay IC50 (nM), average” value in experiment [1] is 56.1 nM.

B2: IgG-like format No. 28 (heavy chain V region DOM15-26-501 VH; light chain V region DOM16-39-500 VK) (bispecific antibody, V domains shown)
VH: EVQLLESGGGLVQPGGSLRLSCAASGFTFKAYPIMWVRQAPGKGLEWVSEISPSGSYTYYADSVKGRFTISRDNSKNTLYLQMNSLRAEDTAVYYCAKDPRKFDYWGQGTLVTVSS
VL: B1 VL with L33V, E42K, S67F, Q79H
notes: IgG-like format; also called IgG 28; not shown: human IgG1 heavy chain constant region; human kappa light chain constant region (CK)
Take B2: in experiment [2], the EC50 turned out to be 43 nM. This molecule also gave a concentration for half-maximal inhibition (IC50) with VEGF-165 of 0.8 nM.

B3: DOM16-39-109 (other)
VL: B1 VL with S9T, I31N, S65G, S67F
For the molecule B3, the “Kinase Assay IC50 (nM), average” value in experiment [1] amounted to 8.69 nM. In experiment [3], this molecule displayed a half-maximal inhibitory concentration (IC50) of 0.746 to 1.47 nM.

B4: DOM16-39-115 (other)
VL: B1 VL with S67Y
Consider B4, for which, in experiment [1], the “Kinase Assay IC50 (nM), average” value was determined as 42.4 nM. The concentration for half-maximal inhibition (IC50) in experiment [3] fell in the range of 1.08 to 6.89 nM.

B5: IgG-like format No. 30 (heavy chain V region DOM15-26-501 VH; light chain V region DOM16-39-502 VK) (bispecific antibody, V domains shown)
VH: B2 VH
VL: B1 VL with S9T, I31N, E42K, S65G, S67F
notes: IgG-like format; also called IgG 30; not shown: human IgG1 heavy chain constant region; human kappa light chain constant region (CK)
Regarding B5, in experiment [2], it took 17 nM to reach a half-maximal effect (EC50). The molecule further yielded an IC50 in the experiment with VEGF-165 of 0.2 nM.

B6: DOM16-39-87 (other)
VL: B1 VL with L33V, T97R
Regarding B6, the “Kinase Assay IC50 (nM), average” value in experiment [1] was 54.9 nM. The molecule also displayed an IC50 in experiment [3] of 4.47 to 10.4 nM.

B7: DOM16-39-100 (other)
VL: B1 VL with L33V, S67F, Q79H
As to B7, in experiment [1], the “Kinase Assay IC50 (nM), average” value is 12.7 nM; the “Kinase Assay IC50 (nM), highest value” came out at 17.6 nM; the “Kinase Assay IC50 (nM), lowest value” was found to be 9.14 nM. In experiment [3], this molecule had a concentration for half-maximal inhibition (IC50) of 1.01 to 2.76 nM.

B8: DOM16-39-107 (other)
VL: B1 VL with L33V
Take B8: the “Kinase Assay IC50 (nM), average” value in experiment [1] came out at 20.5 nM. In experiment [3], the IC50 lay within 1.47 to 4.21 nM.

The values are drawn from patent US20100056439A1 (DOMANTIS, published 2010).
